T1: human VEGF-C (human, UniProt P49767 103-227)
T1 construct: also called hVEGF-C
T1 sequence (looked up): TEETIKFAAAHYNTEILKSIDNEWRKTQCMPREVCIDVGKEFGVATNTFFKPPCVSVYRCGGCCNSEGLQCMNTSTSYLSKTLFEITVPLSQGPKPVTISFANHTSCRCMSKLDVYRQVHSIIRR

B1: VEGFBII114C09 (VHH)
VHH: EVQLVESGGGLVQPGDSLRLSCEVSGRTFSSYSMGWFRQAPGKEREFVVAISKGGYKYDSVSLEGRFTISKDNAKNTVYLQINSLRPEDTAVYYCASSRAYGSSRLRLADTYEYWGQGTLVTVSS
B2: VEGFBII114D02 (VHH)
VHH: EVQLVESGGGLVQTGGSLRLSCEVSGRTFSSYSMGWFRQAPGKEREFVVAISKGGYKYDSVSLEGRFTISRDNAKNTVYLQINSLRPEDTAVYYCASSRAYGSSRLRLADTYEYWGQGTLVTVSS
B3: VEGFBII118E10 (VHH)
VHH: EVQLVESGGGLVQTGDSLRLSCEVSGRTFSSYSMGWFRQAQGKEREFVVAISKGGYKYDAVSLEGRFTISKDNAKNTVYLQINSLKPEDTAVYYCASSRAYGSSRLRLADTYEYWGQGTQVTVSS
notes: VEGFBII23B04 with the S60A mutation, purified protein
B4: VEGFBII114D03 (VHH)
VHH: EVQLVESGGGLVQTGDSLRLSCAVSGRTFSSYSMGWFRQAQGKEREFVVAISKGGYKYDSVSLEGRFTISKDNAKNTVYLQINSLRPEDTAVYYCASSRAYGSSRLRLADTYEYWGQGTLVTVSS
B5: human VEGFR2-Fc chimera (Fc fusion, UniProt P35968 20-764, looked up, not shown: a dimerising Fc or GST)
chain: ASVGLPSVSLDLPRLSIQKDILTIKANTTLQITCRGQRDLDWLWPNNQSGSEQRVEVTECSDGLFCKTLTIPKVIGNDTGAYKCFYRETDLASVIYVYVQDYRSPFIASVSDQHGVVYITENKNKTVVIPCLGSISNLNVSLCARYPEKRFVPDGNRISWDSKKGFTIPSYMISYAGMVFCEAKINDESYQSIMYIVVVVGYRIYDVVLSPSHGIELSVGEKLVLNCTARTELNVGIDFNWEYPSSKHQHKKLVNRDLKTQSGSEMKKFLSTLTIDGVTRSDQGLYTCAASSGLMTKKNSTFVRVHEKPFVAFGSGMESLVEATVGERVRIPAKYLGYPPPEIKWYKNGIPLESNHTIKAGHVLTIMEVSERDTGNYTVILTNPISKEKQSHVVSLVVYVPPQIGEKSLISPVDSYQYGTTQTLTCTVYAIPPPHHIHWYWQLEEECANEPSQAVSVTNPYPCEEWRSVEDFQGGNKIEVNKNQFALIEGKNKTVSTLVIQAANVSALYKCEAVNKVGRGERVISFHVTRGPEITLQPDMQPTEQESVSLWCTADRSTFENLTWYKLGPQPLPIHVGELPTPVCKNLDTLWKLNATMFSNSTNDILIMELKNASLQDQGDYVCLAQDRKTKKRHCVVRQLTVLERVAPTITGNLENQTTSIGESIEVSCTASGNPPPQIMWFKDNETLVEDSGIVLKDGNRNLTIRRVRKEDEGLYTCQACSVLGCAKVEAFFIIEGAQEKTNLE
notes: bought (R&D Systems); also called hVEGFR2-Fc; VEGFR2-huFc
B6: VEGFBII119G11 (VHH)
VHH: EVQLVESGGGLVQPGGSLRLSCAASGIRFMSMAWYRQAPGKQRELVARISSGGTTAYADSVKGRFTISRDNSKNTVYLQMNSLRAEDTAVYYCNTFSSRPNPWGQGTLVTVSS
notes: humanization variant of VEGFBII5B05; tested as periplasmic extract
B7: VEGFBII120E10 (VHH)
VHH: EVQLVESGGGLVQPGGSLRLSCVASGIRFISMAWYRQAPGKHRELVARISSGGTTAYVDSVKGRFTISRDNSKNTVYLQMNSLKAEDTAVYYCNTFSSRPNPWGAGTQVTVSS
notes: VEGFBII5B05 with the M30I mutation; tested as periplasmic extract
B8: VEGFBII11E05 (VHH)
VHH: EVQLVESGGGLVQPGGSLRLSCASSGRLFSFSAMGWFRQAPGKEREFVAAFKWSGSTTYYADYVKGRFTISTDNAKNILFLQMNSLKPEDTAIYYCAVDRFYTGRYYSSDEYDYWGQGTQVTVSS
B9: VEGFBII10G04 (VHH)
VHH: EVQLVESGGGLVQAGGSLRLSCAASGDTLSRYAMGWFRQAPGKEREFVASINTSGKRTSYADSMKGRFAVSRDNAKNTGYLQMNSLKLEDTATYYCAADRFFGSDSNEPRAYRYWGQGTQVTVSS
B10: VEGFBII11E04 (VHH)
VHH: EVQLVESGGGLVQAGGSLRLSCAASGRTFSSYAMGWFRQAPGKEREFVATISQSGYSTYYADSVKGRFTISRDNAKNTVNLQMNSLKPEDTAVYYCAADPFYSYGSPSPYRYWGQGTQVTVSS
B11: VEGFBII10G05 (VHH)
VHH: EVQLVESGGGLVQAGESLRLSCVASGITFSNYNMGWFRQAPGKEREFVATIRHHGYDTYYAESVKGRFTISRDNAKNTVYLQMNSLKPEDTALYSCAKKLFWDMDPKTGFSSWGQGTQVTVSS
B12: VEGFBII05B03 (VHH)
VHH: EVQLVESGGGLAQAGDSLRLSCAASGRSFSHYNMGWFRQAPGKEREFVASIRGGGGSTTYANSVKDRFTISRENAKNTVYLQMNSLKPEDTAVYYCAATAFYRGPYDYDYWGQGTQVTVSS
B13: VEGFBII11D09 (VHH)
VHH: EEQLVESGGGLVQAGGSLMLSCAASGRALSSYAIGWFRQAPGREREFVARISWSGANTYYADSVKGRFTISRGNAKNTVYLQMNSLKPEDTAAYYCAAQTTSKYDNYDARAYGYWGQGTQVTVSS
B14: VEGFBII03D12 (VHH)
VHH: EVQLVESGGGLVQAGGSLRLSCTASTSIYTITVMAWFRQAPGKEREFVAAITWSAPTTYYADSVKGRFTISRDNAKNTVYLRMNSLKPEDSAIYYCAADRFKGRSIVTPSDYRYWGQGTQVTVSS
B15: VEGFBII07D08 (VHH)
VHH: EVQLVESGGGLVQTGGSLRLSCAASGRTFSNYAMAWFRQAPGKEREFVSAINQRGSNTNYADSVKGRFTISRDSAKNSVFLQMNSLKPEDTAVYYCAASTWYGYSTYARREEYRYWGQGTQVTVSS
B16: VEGFBII86H09 (VHH)
VHH: EVQLVESGGGLVQAGGSLRLSCTASGSAFKSYRMGWFRRTPGKEDEFVASISWTYGSTFYADSVKGRFTMSRDKAKNAGYLQMNSLKPEDTALYYCAAGAQSDRYNIRSYDYWGQGTQVTVSS
B17: VEGFBII11F12 (VHH)
VHH: EVQLVESGGGLVQSGGSLRLSCAASGRSFSSLAMGWFRQVPGKDREFVASISQSGITTSYADSVKSRFTISRDSAKNTVYLQMNLLKPEDTAVYYCATSVFYSTALTRPVDYRYWGQGTQVTVSS
B18: VEGFBII41C05 (VHH)
VHH: EVQLVESGGGLVQAGGSLRLSCAASGRTFSVYTMGWFRQAPGKEREFVATISRTGDRTSYANSVKGRFTISRENAKNTVYLQMNSLKPEDTAVYSCAAGPIAPSPRPREYYYWGQGTQVTVSS
B19: VEGFBII11C08 (VHH)
VHH: EVQLVESGGGLVQAGGSLRLSCAASGRTLSSYGLGWFRQAPGKEREFVAAIGWSGSSTYYADSVKGRFTVSVDNAKNTVYLKMNSLEPEDTAVYYCAAKVRNFNSDWDLLTSYNYWGQGTQVTVSS
B20: VEGFBII05B02 (VHH)
VHH: EVQLVESGGGLVQAGGSLRLSCAASGRTFSTDDVGWFRQAPGKEREFVAVIRWSTGGTYTSDSVKGRFTLSRDNAKNTMYLQMNSLKPEDTAVYYCAARSRPLGAGAWYSGEKHYNYWGQGTQVTVSS
B21: VEGFBII10E07 (VHH)
VHH: EVQLVESGGGLVQAGGSLRLSCAASGRTFSNYAMGWFRQAPGKERVLVADISSSGINTYVADAVKGRFTISRDNAKNTVYLQMNSLKPEDTAVYYCAASAWWYSQMARDNYRYWGQGTQVTVSS
B22: VEGFBII06G02 (VHH)
VHH: EVQLVESGGGLVQPGGSLRLSCAASGNIFSNNAMAWYRQAPGKQRELVARISSGGGFTYYLDSVKGRFTVSRDNAKNTVYLQMNSLKPEDTAVYYCNAAYRTYNYWGQGTQVTVSS
B23: VEGFBII10C07 (VHH)
VHH: EVQLVESGGGLVQAGGSLSLSCAASARAFSNYAMGWFRQVPGREREFVAVITRSPSNTYYTDSVKGRFTISRDNAKNIVYLQMNSLKPEDTAVYYCAAHYWNSDSYTYTDSRWYNYWGQGTQVTVSS
B24: VEGFBII08D09 (VHH)
VHH: EVQLVESGGGLVQAGGSLRLSCAASGRSFSDNVMGWFRQAAGKEREFVAHISRGGSRTEYAESVKGRFTISRDNTKKTMYLQMNSLKPEDTAVYYCAASRSVALATARPYDYWGQGTQVTVSS

The binders below were run against T2, recombinant human VEGF165 (human, UniProt P15692-4 27-191) (assay: VEGF165/VEGFR2 AlphaScreen).
T2 construct: also called hVEGF165; rhVEGF165
T2 sequence (P15692 other isoform, or with tags, fused parts or gaps limits assumed): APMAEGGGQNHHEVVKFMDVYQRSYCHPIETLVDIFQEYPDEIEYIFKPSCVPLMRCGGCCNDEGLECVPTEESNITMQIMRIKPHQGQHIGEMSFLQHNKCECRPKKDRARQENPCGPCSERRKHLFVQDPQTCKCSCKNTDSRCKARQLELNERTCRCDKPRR
With B1 the “% inhibition” value was 100% and the IC50 was 0.215 nM.
With B2 the “% inhibition” value was 100% and the IC50 was 0.199 nM.
B3 was tested, and the “% inhibition” value was 100% and the IC50 was 0.189 nM.
For B4, the “% inhibition” value was 100% and the IC50 was 0.227 nM.

The binders below were run against T1, human VEGF-C (assay: binding ELISA on coated VEGFC).
Description: Binding to VEGFB, VEGFC, VEGFD and PIGF is assessed via a solid phase binding ELISA. In brief, VEGFB, VEGFC, VEGFD and PIGF (R&D Systems, Minneapolis, Minn., USA) are coated overnight at 4° C. at 1 μg/mL in a 96-well MaxiSorp plate (Nunc, Wiesbaden, Germany). Wells are blocked with a casein solution (1% in PBS). […] As positive controls serial dilutions of the appropriate receptors are taken along and detected with horseradish peroxidase (HRP)-conjugated goat anti-human IgG, Fc specific antibody (Jackson Immuno Research Laboratories Inc., West Grove, Pa., USA) and a subsequent enzymatic reaction in the presence of the substrate TMB (3,3′,5,5′-tetramentylbenzidine) (Pierce, Rockford, Ill., USA).
For B5, the “EC50 (read off the curve)” value was ~4 nM.

Each binder was assayed against T2, recombinant human VEGF165 (assay: ProteOn, periplasmic extract 1/10 on hVEGF165 chip).
Source text: One additional variant is constructed in which the potential oxidation site at position M30 (CDR1 region, see FIG. 19 indicated as bold italic residue) is removed by introduction of a M30I mutation.
In the case of B6, the “Binding level (RU)” value is reported as 234 RU and the koff is reported as 0.0775 s⁻¹.
In the case of B7, the “Binding level (RU)” value is reported as 257 RU and the koff is reported as 0.0468 s⁻¹.

The binders below were run against T2, recombinant human VEGF165 (assay: Biacore epitope binning, VEGF165 captured on immobilised VEGFBII23B04).
Description: Biacore-based epitope binning experiments are performed to investigate which VEGF binders bind to a similar or overlapping epitope as VEGFBII23B04. To this end, VEGFBII23B04 is immobilized on a CM5 sensor chip. […] Purified VHHs (100 nM) or periplasmic extracts (1/10 diluted) are then injected with a surface contact time of 240 seconds and a flow rate of 10 uL/minute. Between different samples, the surface is regenerated with regeneration buffer (100 mM HCl). Processed curves are evaluated with Biacore T100 Evaluation software.
B8: binds.
B9: binds.
B10: binds.
B11: binds.
B12: binds.
B13: binds.
B14: binds.
B15: binds.
B16: binds.
B17: binds.
B18: binds.
B19: binds.
B20: binds.
B21: binds.
B22: binds.
B23: binds.
B24: binds.

Source: US20170247475A1 (Boehringer Ingelheim, published 2017)
